# From the DeepSol protein solubility set
# Test: soluble on expression in E. coli; label from the status in PepcDB or PDB records
row,Sequence,soluble on expression in E. coli
1,MRGSHHHHHHGMASHITYDLPVAIEDILEAKKRLAGKIYKTGMPRSNYFSERCKGEIFLKFENMQRTGSFKIRGAFNKLSSLTEAEKRKGVVACSAGNHAQGVSLSCAMLGIDGKVVMPKGAPKSKVAATCDYSAEVVLHGDNFNDTIAKVSEIVETEGRIFIPPYDDPKVIAGQGTIGLEIMEDLYDVDNVIVPIGGGGLIAGIAIAIKSINPTIKVIGVQAENVHGMAASYYTGEITTHRTTGTLADGCDVSRPGNLTYEIVRELVDDIVLVSEDEIRNSMIALIQRNKVITEGAGALACAALLSGKLDSHIQNRKTVSIISGGNIDLSRVSQITGLVDA,soluble
2,MAHHHHHHMHADGMHTEQDEFTLSQYVQRTPLARPLGLKIGARVMLRTNLAPGLVNGSLGTVVAFRKLEMDQLPRYIVGNAQREESILQYADYLKYEQGFEVPLVPVLDFNGRQEVIPPVTHFVGGLPNTHFYSMGIIALPLSLAYAFTVHKVQGLTLVGRVHLELSRMWPCEHLLYVAMSRVRNPEQLSVSSFHPSLVRAAADCLLFDDSLPPVTQVRIAPYMVAATWRRSSERRKKTVLRKRLEAYVKRRQQRLQSEASKGDIRAEIRLLEEKMLKQRVRASAAHRKRRSTPGKLGAVAGSPMV,not soluble
3,MQGEDTIMKTTELKLVYFSPTGTTRRVIMEAARQIDLKSVSFDLSVHKEKKPVLQFDETDFVLFGIPVYSGRVPETFLSYFETLKGNNTPAALIATYGCRAYEDALLELKTEVENRGFHVIGAGAFPTEHSIVRSIGLSRPNKADLKTISEFGIALNRRIKNEDLSALSIQVPGNTPYRKYAKTPLIPKADVSLCTECKACVKSCPAGAISAQDPKKTDKKKCISCLRCVRSCKQKARSVSSMKLSMAAKKLNKVCQSDKAADIFL,not soluble
4,RHYPEVKKLVLLSTAVNAMEWPQIIENSKQVITEAKEVTLKNSPMFKRYQKKVTETPWTSTLQFKKMVALAKPVFEHIEIPTFIAQGSADPIVPAEKSVNFLMESIPGPKELFILEGSKHVICQDEQADKLFAAVLTFLQK,not soluble
5,MHELFHPIFANGEEKAALQQLIIALDASGKRYFLRNEILHTFSQYCQQAQKPTYFYYSSSVGKLIQYTHEIVLAEDGTWFVVRPRIASQEVWRLTSDLAKFDSMSIDAFLDVSDRLVNAYEPNILEIDLNSFYEASPSISDPRNIGQGLAFLNRYLCSQIATDPQYWVELVYLALRGLQYDGINLMIGDAIPSGIHLAKQIHAAIKFLSALPPEEPYEKFYIELQKLGFEPGWGNTAQRILETITLLDKLIDSPQPAVLEAFVARVPAVFRVVLVSIHGWVAQEDVMGRDETLGQVIYVLEQARSLENKLQQEIKLAGLEVLGIQPHVIILTRLIPNCEGTYCNLRLEKLHNTENAWILRVPFGEFNPEITNNWISKFEIWPYLETFALDAEKQLLAQFQGKPNLIIGNYSDGNLVAFLLARRLKVTHCNIAHSLEKPKNLFSNLYWQDSEEKYHFSVQFTADLITMNAADFIITSSYQEIFGTPESIGQYESYKFFTMPHLYHVVDGIDLFNPKFNMVPPGVNEQVFFPYSQTADRDPNVSKHVHDLLEHHHHHH,not soluble
6,QYQDYASFFRNNKSVTHLIVPSNFIGAGVSKYKDWKRSNIPYTQLDMAVVQNRPAGSLRRFVVLVVGETTRAANWGLNGYSRQTTPLLAARGDEIVNFPQVRSCGTSTAHSLPCMFSTFDRTDYDEIKAEHQDNLLDIVQRAGVEVTWLENDSGCKGVCGKVPNTDVTSLNLPEYCRNGECLDNILLTKFDEVLNKNDKDAVLILHTIGSHGPTYYERYTEAERKFTPTCDTNEINKCTRATLVNTYDNTVLYVDQFIDKVIRKLENRDDLESVVHYVSDHGESLGENG,not soluble
7,MSADAYHPPTTSPRLETLDVLSIGMSLDVFRQGQVWKALQEQNAAQAEALHVGSILPMDPKKYPTSADDKDMAYEKRQADALELGLKNFLEKWPIPTVTVVRGWDPSTPNLRFTPEETRESLSVKVNDLRVPAGLHWHRIANLQDGIICNDTPEGVLEALFSLFERNPDLPAVLVYANEGISMAGALSSRDVTLKSLGAVSGPRIPGTLTDAMVALIVGRPERVDWLRQFAPYTKVNENRIDPEFRGWGWRKPPVEFRPTPFIPQPWTERALEQWDALPVLARLHRPVSVPLTHPDTGERLKREALTAQLAAAWKTASAGLRPAPARLFYDGGLNATPLAELTPALGAAQSSLDLLDSRESYDLTQRLGDTGAASPFVGITLATMASYLNGDSSMVMPLRRKDQATLIGISSPTPGKKPVHDPFGVDLLPQTASGDGPPPSADPVAPASRLTTRLPPGEDYALEEFLSSLKPSTDWQDDL,not soluble
